# Where no end group is shown, it is not given here.
# Experiments:
# PSMA Fab (006 PSMA Fab) [1] = biological target: T1, PSMA Fab (006 PSMA Fab) (biotinylated (site not stated)); assay: clonal phage ELISA on biotinylated anti-PSMA Fab captured on neutravidin, anti-M13-HRP detection
# T1 construct: That the same Fab was used in the panning ELISA is inferred; also called Anti-PSMA Fab; anti-PSMA Fab
# PSMA Fab (006 PSMA Fab) [2] = biological target: T1, PSMA Fab (006 PSMA Fab); assay: clonal phage ELISA on captured anti-PSMA Fab pre-incubated with PSMA antigen (competitor: PSMA)
# Description: (§1) Clonal phage were harvested as crude supernatants and screened via standard ELISAs. […] Prior to the addition of clonal phage. wells were incubated with blocking buffer and PSMA antigen or blocking buffer alone. Without washing or aspirating, clonal phage supernatants were then added to the wells and incubated for a short time. Wells were then washed followed by detection of bound phage using a horse radish conjugated anti-M13 antibody.
# PSMA Fab (006 PSMA Fab) [3] = biological target: T2, PSMA Fab (006 PSMA Fab) (Fab biotinylated for capture on neutravidin plates (site not given)); assay: clonal phage ELISA; biotinylated PSMA Fab on neutravidin plate, blocking buffer alone; anti-M13-HRP detection;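 further: clonal phage applied as crude supernatants to wells preincubated with blocking buffer, binding read by ELISA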
# T2 construct: also called Anti-PSMA Fab; anti-PSMA Fab
# PSMA Fab (006 PSMA Fab) [4] = biological target: T2, PSMA Fab (006 PSMA Fab); assay: clonal phage ELISA; biotinylated PSMA Fab on neutravidin plate, wells pre-incubated with PSMA antigen as competitor; anti-M13-HRP detection
# Description: as §1
# PSMA Fab [5] = biological target: T3, PSMA Fab (biotinylated (site not stated)); assay: clonal phage ELISA, biotinylated PSMA Fab on neutravidin plate, anti-M13 HRP detection;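 further: crude clonal phage supernatants added to wells pretreated with blocking buffer either with or without PSMA antigen, bound phage read after washing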
# T3 construct: Biotinylated PSMA Fab captured on neutravidin coated plates in the phage ELISA; also called Anti-PSMA Fab; 006 PSMA Fab
# PSMA Fab [6] = biological target: T3, PSMA Fab; assay: clonal phage ELISA on PSMA Fab pre-incubated with PSMA antigen as competitor
# Description: as §1
# Anti-PSMA Fab [7] = biological target: T4, Anti-PSMA Fab; assay: clonal phage ELISA on biotinylated PSMA Fab captured on neutravidin plate, anti-M13 HRP detection, blocking buffer alone
# T4 construct: Biotinylated and captured on neutravidin coated plates in the phage ELISA; also called 006 PSMA Fab
# Description: as §1
# Anti-PSMA Fab [8] = biological target: T4, Anti-PSMA Fab; assay: clonal phage ELISA on captured PSMA Fab pre-incubated with PSMA antigen as competitor, anti-M13 HRP detection;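 further: crude clonal phage supernatants tested by ELISA, wells first treated with blocking buffer plus PSMA antigen, bound phage read out via HRP-linked anti-M13 antibody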
# Description: as §1
Binder,"Phage binding ELISA signal, Anti-PSMA Fab (PSMA Fab (006 PSMA Fab) [3])","Phage binding ELISA signal, Anti-PSMA Fab in presence of PSMA antigen (PSMA Fab (006 PSMA Fab) [4])","Phage binding ELISA signal, Anti-PSMA Fab (PSMA Fab [5])","Phage binding ELISA signal, Anti-PSMA Fab with PSMA antigen (PSMA Fab [6])",further results
"YFQMCAPRWMCEGF (cysteine pairing not given here; also: fused to pIII of bacteriophage, Peptide-180 library clone, tested as clonal phage supernatant; not shown: fused to the pIII filament protein of the bacteriophage) [Phage-3423]",–,–,–,–,phage binding ELISA signal (PSMA Fab (006 PSMA Fab) [1]): 1.78; phage binding ELISA signal in the presence of PSMA (PSMA Fab (006 PSMA Fab) [2]): 0.0849
"IDQICKPAWMCSGF (Peptide-180 library clone, tested as clonal phage supernatant; not shown: fused to the pIII filament protein of the bacteriophage) [Phage-3424]",–,–,–,–,phage binding ELISA signal (PSMA Fab (006 PSMA Fab) [1]): 1.78; phage binding ELISA signal in the presence of PSMA (PSMA Fab (006 PSMA Fab) [2]): 0.0628
"LEIMCRPEWMCSGF (Peptide-180 library clone, tested as clonal phage supernatant; not shown: fused to the pIII filament protein of the bacteriophage) [Phage-3425]",–,–,–,–,phage binding ELISA signal (PSMA Fab (006 PSMA Fab) [1]): 1.77; phage binding ELISA signal in the presence of PSMA (PSMA Fab (006 PSMA Fab) [2]): 0.0888
"MTPRCIPSWMCFGM (Peptide-180 library clone, tested as clonal phage supernatant; not shown: fused to the pIII filament protein of the bacteriophage) [Phage-3426]",–,–,–,–,phage binding ELISA signal (PSMA Fab (006 PSMA Fab) [1]): 1.77; phage binding ELISA signal in the presence of PSMA (PSMA Fab (006 PSMA Fab) [2]): 0.086
"SSMLCIPTWMCGGF (Peptide-180 library clone, tested as clonal phage supernatant; not shown: fused to the pIII filament protein of the bacteriophage) [Phage-3427]",–,–,–,–,phage binding ELISA signal (PSMA Fab (006 PSMA Fab) [1]): 1.77; phage binding ELISA signal in the presence of PSMA (PSMA Fab (006 PSMA Fab) [2]): 0.0536
"TSLRCVPEWMCSGF (Peptide-180 library clone, tested as clonal phage supernatant; not shown: fused to the pIII filament protein of the bacteriophage) [Phage-3428]",–,–,–,–,phage binding ELISA signal (PSMA Fab (006 PSMA Fab) [1]): 1.77; phage binding ELISA signal in the presence of PSMA (PSMA Fab (006 PSMA Fab) [2]): 0.0814
"SLPICKPEWMCVGL (Peptide-180 library clone, tested as clonal phage supernatant; not shown: fused to the pIII filament protein of the bacteriophage) [Phage-3429]",–,–,–,–,phage binding ELISA signal (PSMA Fab (006 PSMA Fab) [1]): 1.77; phage binding ELISA signal in the presence of PSMA (PSMA Fab (006 PSMA Fab) [2]): 0.0892
"VEKMCKPVWMCNGF (Peptide-180 library clone, tested as clonal phage supernatant; not shown: fused to the pIII filament protein of the bacteriophage) [Phage-3430]",–,–,–,–,phage binding ELISA signal (PSMA Fab (006 PSMA Fab) [1]): 1.77; phage binding ELISA signal in the presence of PSMA (PSMA Fab (006 PSMA Fab) [2]): 0.115
"EDILCKPVWMCIGF (Peptide-180 library clone, tested as clonal phage supernatant; not shown: fused to the pIII filament protein of the bacteriophage) [Phage-3431]",–,–,–,–,phage binding ELISA signal (PSMA Fab (006 PSMA Fab) [1]): 1.77; phage binding ELISA signal in the presence of PSMA (PSMA Fab (006 PSMA Fab) [2]): 0.06
"SFLRCEPMWMCLGF (Peptide-180 library clone, tested as clonal phage supernatant; not shown: fused to the pIII filament protein of the bacteriophage) [Phage-3432]",–,–,–,–,phage binding ELISA signal (PSMA Fab (006 PSMA Fab) [1]): 1.77; phage binding ELISA signal in the presence of PSMA (PSMA Fab (006 PSMA Fab) [2]): 0.0816
"IEPHCVPAWMCTGF (Peptide-180 library clone, tested as clonal phage supernatant; not shown: fused to the pIII filament protein of the bacteriophage) [Phage-3433]",–,–,–,–,phage binding ELISA signal (PSMA Fab (006 PSMA Fab) [1]): 1.76; phage binding ELISA signal in the presence of PSMA (PSMA Fab (006 PSMA Fab) [2]): 0.0805
"EDVRCVPAWMCNGF (cysteine pairing not given here; also: fused to pIII of bacteriophage, also called Peptide-180 library clone; not shown: pIII filament protein of the bacteriophage) [Phage-3449]",1.75,0.0724,–,–,–
PLKLCIPEWMCVEL (also called Peptide-180 library clone; not shown: pIII filament protein of the bacteriophage) [Phage-3450],1.75,0.0747,–,–,–
TINICKPQWMCIGF (also called Peptide-180 library clone; not shown: pIII filament protein of the bacteriophage) [Phage-3451],1.74,0.0893,–,–,–
MERFCIPSWMCEGL (also called Peptide-180 library clone; not shown: pIII filament protein of the bacteriophage) [Phage-3452],1.74,0.0682,–,–,–
FEFRCTPEWMCRGF (also called Peptide-180 library clone; not shown: pIII filament protein of the bacteriophage) [Phage-3453],1.74,0.0706,–,–,–
VTMRCTPDWMCVGF (also called Peptide-180 library clone; not shown: pIII filament protein of the bacteriophage) [Phage-3454],1.74,0.0737,–,–,–
IEALCVPDWMCRGF (also called Peptide-180 library clone; not shown: pIII filament protein of the bacteriophage) [Phage-3455],1.74,0.0663,–,–,–
HIMQCKPAWMCSGL (also called Peptide-180 library clone; not shown: pIII filament protein of the bacteriophage) [Phage-3456],1.74,0.0654,–,–,–
VEKMCRPLWMCHGF (also called Peptide-180 library clone; not shown: pIII filament protein of the bacteriophage) [Phage-3457],1.74,0.0944,–,–,–
VVAQCVPRWMCDGF (also called Peptide-180 library clone; not shown: pIII filament protein of the bacteriophage) [Phage-3458],1.74,0.103,–,–,–

Binder,"Phage binding ELISA signal, Anti-PSMA Fab (PSMA Fab (006 PSMA Fab) [3])","Phage binding ELISA signal, Anti-PSMA Fab in presence of PSMA antigen (PSMA Fab (006 PSMA Fab) [4])","Phage binding ELISA signal, Anti-PSMA Fab (PSMA Fab [5])","Phage binding ELISA signal, Anti-PSMA Fab with PSMA antigen (PSMA Fab [6])",further results
SPPLCVPVWMCHGF (also called Peptide-180 library clone; not shown: pIII filament protein of the bacteriophage) [Phage-3459],1.74,0.148,–,–,–
NAIMCRPAWMCSGF (also called Peptide-180 library clone; not shown: pIII filament protein of the bacteriophage) [Phage-3460],1.74,0.0847,–,–,–
TELLCTPRWMCEGF (also called Peptide-180 library clone; not shown: pIII filament protein of the bacteriophage) [Phage-3461],1.74,0.163,–,–,–
VLRSCVPEWMCSGF (also called Peptide-180 library clone; not shown: pIII filament protein of the bacteriophage) [Phage-3462],1.74,0.075,–,–,–
VSPMCRPAWMCEGL (tested as crude clonal phage supernatant) [Phage-3476],–,–,1.73,0.0909,–
VWKTCVPEWMCVGY (tested as crude clonal phage supernatant) [Phage-3477],–,–,1.73,0.112,–
SDKFCVPEWMCEWI (tested as crude clonal phage supernatant) [Phage-3478],–,–,1.72,0.0588,–
MDARCVPSWMCIGV (tested as crude clonal phage supernatant) [Phage-3479],–,–,1.72,0.48,–
EFIKCEPKWMCQGF (tested as crude clonal phage supernatant) [Phage-3480],–,–,1.72,0.0826,–
DTIACRPEWMCTGF (tested as crude clonal phage supernatant) [Phage-3481],–,–,1.72,0.0607,–
YFKHCVPQWMCEGF (tested as crude clonal phage supernatant) [Phage-3482],–,–,1.72,0.146,–
ITPACVPEWMCLGL (tested as crude clonal phage supernatant) [Phage-3483],–,–,1.72,0.0774,–
AERMCVPSWMCQGL (tested as crude clonal phage supernatant) [Phage-3484],–,–,1.72,0.0943,–
EAIRCVPVWMCQGF (tested as crude clonal phage supernatant) [Phage-3485],–,–,1.72,0.0989,–
YSQMCKPAWMCNGF (tested as crude clonal phage supernatant) [Phage-3486],–,–,1.72,0.101,–
PVAVCKPAWMCEGF (tested as crude clonal phage supernatant) [Phage-3487],–,–,1.72,0.0982,–
ITQMCKPAWMCVGL (tested as crude clonal phage supernatant) [Phage-3488],–,–,1.72,0.123,–
LDRMCVPLWMCEGF (tested as crude clonal phage supernatant) [Phage-3489],–,–,1.71,0.0991,–
"VNMICKPAWMCKGF (cysteine pairing not given here; also: fused to pIII of bacteriophage, pIII and linker not given here, Peptide-180 library clone, tested as clonal phage supernatant with the peptide fused to pIII of the bacteriophage) [Phage-3490]",–,–,–,–,"Phage binding ELISA signal, Anti-PSMA Fab (Anti-PSMA Fab [7]): 1.71; Phage binding ELISA signal, Anti-PSMA Fab with PSMA antigen (Anti-PSMA Fab [8]): 0.0872"
"LEMVCKPEWMCLGL (cysteine pairing not given here; also: fused to pIII of bacteriophage, pIII and linker not given here, Peptide-180 library clone, tested as clonal phage supernatant with the peptide fused to pIII of the bacteriophage) [Phage-3491]",–,–,–,–,"Phage binding ELISA signal, Anti-PSMA Fab (Anti-PSMA Fab [7]): 1.71; Phage binding ELISA signal, Anti-PSMA Fab with PSMA antigen (Anti-PSMA Fab [8]): 0.0996"

# From patent US20260242478A1 (published 2026)
